US9932479B2, “Dyes and compositions, and processes for using same in analysis of protein aggregation and other applications” (Enzo Biochem, Inc., priority 2009, dated 2018)

Biological target: T1, ß-lactoglobulin (Bos taurus, UniProt P02754)
T1 sequence (P02754 17-178): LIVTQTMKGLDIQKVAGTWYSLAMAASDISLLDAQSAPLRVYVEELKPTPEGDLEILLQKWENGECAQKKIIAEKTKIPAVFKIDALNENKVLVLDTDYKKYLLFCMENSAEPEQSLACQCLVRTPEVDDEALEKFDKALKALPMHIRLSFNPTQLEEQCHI
Test: Chaperone activity assay: heat-induced BLG aggregation, Tol3/S25 readout
Assay type: biochemical
Settings: 0.4 mg/ml HSP 27, 8 mg/ml ß-lactoglobulin (mass ratio 1:20), 68° C.
Procedure: Aggregation of ß-lactoglobulin was monitored in the presence or absence of the chaperone HSP 27. Aggregation of 8 mg/ml ß-lactoglobulin was monitored using 1.25 μM Tol3 and 1.25 μM S25 in PBS, pH 7.4 with 2.5 mM EDTA and 0.05% sodium azide. When the chaperone HSP 27 was added it was added to a final concentration of 0.4 mg/ml. HSP 27 was also run in the absence of R-lactoglobulin as a control. Aggregation was initiated by heating the protein solution to 68° C. in a 96 well half-volume clear plate (Biomol international, Inc). The fluorescence intensity was then recorded every 2 minutes, with shaking between reads. The excitation wavelength was set to 550 nm and the emission was set to 610 nm on a BMG Fluorstar plate reader. The fluorescence intensity of the starting point was subtracted from the remaining points. […] Since Hsp 27 is binding with unfolded BLG intermediate, thus preventing protein aggregation, these styryl cyanine dyes are detecting protein aggregation, as opposed to unfolding.

Hsp 27: heat shock protein, chaperone
Effect on heat-induced aggregation of BLG: significantly prevent the aggregation of BLG
